Laboratory results taken from the Human Domainome abundance scans (Beltran et al. 2025).

B1: RUN and FYVE domain-containing protein 1, residues 639 to 698; numbered along this chain, Q96T51 (parent)
chain: WLKDDEATHCRQCEKEFSISRRKHHCRNCGHIFCNTCSSNELALPSYPKPVRVCDSCHTL

Variants of: B1
Test: abundance fitness (aPCA) (normalised: wild type 0, dead -1); higher = more abundant; growth selection in yeast, the domain comes from the species named
Conditions: Homo sapiens

Abundance fitness of substitutions, site by site:
E16: G -0.18 | F -0.245 | C -0.29 | H -0.089 | L -0.314 | T -0.339 | R -0.412 | W -0.638 | D -0.123 | K -0.387 | Q -0.329 | Y -0.349 | A -0.286 | P -0.195 | S -0.179 | V -0.282 | N -0.029
H25: N -0.311 | M 0.051 | P -0.065 | K 0.012 | I -0.13 | C -0.169 | D -0.176 | A 0.121 | E -0.02 | F -0.045
T8: L -0.009 | D -0.087 | S -0.016 | G -0.062 | C -0.325 | Y -0.349 | K -0.026 | I 0.047 | V -0.269 | Q 0.008 | M 0.022 | H 0.025 | A -0.204 | R -0.009 | E -0.085 | P -0.187
R21: T 0.13 | A -0.04 | L -0.195 | S -0.355 | N -0.711 | Q -0.069 | M -0.239 | K -0.184 | V -0.054 | Y -0.801 | H -0.434 | D -1.25 | G -0.278 | I -0.227 | C -1.14 | P -0.503 | W -1.06 | F -0.265
H24: V -0.166 | F -0.351 | E 0.051 | D -0.251 | Q -0.293 | A -0.266 | L -0.458 | W -0.282 | R -0.378 | M -0.148 | S -0.284 | I -0.443 | P -0.97 | C -0.135 | G -0.515 | T -0.146 | N -0.256
K23: F -0.362 | P -0.494 | T -0.204 | E -0.165 | Y -0.575 | W -0.243 | V -0.257 | L -0.433 | C -0.176 | R -0.069 | G -0.034 | H -0.326 | S -0.189 | D -0.315 | M -0.137 | N -0.491 | Q -0.261 | I -0.207
E14: L -0.377 | F -0.204 | S -0.168 | P -0.856 | H -0.127 | I -0.167 | W -0.24 | D -0.083 | A -0.08 | M -0.212 | K -0.439 | N -0.459 | G 0.006 | C -0.243 | V -0.41 | Q -0.113 | R -0.431
H9: S -0.115 | G -0.22 | K -0.09 | M -0.108 | N -0.046 | W -0.532 | T -0.221 | E -0.418 | Y -0.357 | F -0.135 | A 0.136 | R -0.23 | I -0.216 | P -0.822 | Q -0.248
R11: Y 0.121 | H 0.044 | E 0.079 | F -0.023 | W 0.224 | L 0.161 | K 0.229 | S 0.203 | V -0.155 | D 0.057 | P -0.03 | Q 0.05 | M 0.226 | N -0.093 | G 0.127 | A 0.227 | T 0.044
R22: C -0.494 | V 0 | Q -0.1 | T -0.066 | P -0.303 | E 0.014 | L -0.098 | I -0.1 | N -0.24 | Y -0.356 | D -0.141 | S -0.32 | M 0.109 | A -0.102 | H -0.854 | W -0.18
A7: Q 0.04 | C -0.082 | W -0.154 | T 0.014 | E 0.017 | F -0.028 | M -0.302 | Y -0.092 | R -0.031 | N -0.204 | L -0.234 | S 0.092 | V -0.108 | G -0.09 | I -0.008 | K -0.384 | P -0.114 | H -0.176 | D -0.039
Q12: I -0.068 | E -0.225 | K -0.449 | R -0.303 | C 0.039 | D -0.051 | W -0.69 | M -0.27 | H -0.27 | S -0.412 | L -0.298 | N -0.106 | Y -0.279 | A -0.171 | F -0.458 | G 0.208 | P -1.17 | T -0.565
S18: C 0.007 | V -0.247 | T 0.05 | Q -0.256 | G -0.049 | W -0.322 | A -0.33 | F -0.352 | N -0.12 | P -0.398 | L -0.423 | M -0.23 | H -0.408 | I -0.144 | Y -0.501 | K -0.087 | D 0.06
C13: P -0.984 | E -0.738 | W -0.82 | V -0.951 | T -0.83 | L -0.913 | S -0.899 | G -0.684 | R -0.802 | H -0.975 | K -1.07 | F -0.707 | M -0.943 | N -0.712 | Q -0.806 | I -1.01 | D -0.874
S20: F -0.009 | L -0.147 | C -0.369 | K -0.018 | P -0.061 | E 0.197 | I 0.028 | H -0.108 | T 0.069 | W 0.005 | V -0.031 | Q 0.138 | A 0.068 | D 0.13 | Y -0.195
K15: C -0.196 | T -0.154 | R -0.053 | Q -0.082 | P -0.999 | N -0.058 | Y -0.191 | L -0.188 | A -0.527 | M -0.373 | W -0.449 | G -0.088 | E -0.009 | D -0.233 | I -0.143 | V -0.359 | S -0.098 | H -0.074
I19: Y -0.341 | K 0.073 | R -0.065 | E 0.228 | C -1.15 | V -0.102 | P -0.034 | F -0.136 | H -0.036 | N -0.001 | M -0.006 | Q 0.094 | S -0.048 | T 0.095 | W -0.846 | A -0.177 | D -0.014 | L -0.038
E6: G 0.001 | R -0.336 | W -0.388 | N -0.121 | D -0.078 | F -0.295 | H -0.185 | P -0.236 | T -0.014 | M -0.316 | V -0.254 | Q -0.203 | Y -0.191 | I 0.029 | K 0.126 | L -0.425 | S -0.165
C10: N -0.837 | R -0.843 | W -0.519 | K -0.766 | A -0.765 | E -0.687 | I -0.636 | T -0.711 | H -0.665 | L -0.74 | Q -0.678 | F -0.776 | V -0.815 | G -0.849 | Y -0.72 | M -1.02
F17: M -0.571 | V -0.662 | T -0.574 | L -0.218 | H -0.65 | K -0.676 | D -0.467 | A -0.927 | R -0.677 | E -0.68 | P -0.624 | Q -0.765 | N -1.02 | W -0.381 | Y -0.769 | S -0.709 | G -0.793 | I -0.397
